Data published in patent US20120316071A1 (published 2012).
Changes are numbered by the printed parent chain. Numbers in names are those of the source.

Legend:
[1] = target: T1, Recombinant Human DLL4 (delta-like protein 4) (human, UniProt Q9NR61 27-524); assay: ECL Multispot (MSD) binding assay, DLL4 spotted on plate, 10 nM Fab
T1 construct: Bought recombinant protein (R&D Systems Cat#1506-D4/CF); also called rHuman DLL4; Delta-like 4

[2] = target: T2, Recombinant Human DLL4 (delta-like protein 4) (human, UniProt Q9NR61 27-524); assay: ECL Multispot (MSD) binding assay, DLL4 spotted on plate, 10 nM Fab; ECL signal over blank spot
T2 construct: Bought recombinant protein (R&D Systems Cat#1506-D4/CF), spotted on the MSD plate; also called rHuman DLL4; Delta-like 4

[3] = target: T3, rHuman CD44/Fc Chimera, CF (R&D Systems Cat#3660-CD) (human, UniProt P16070 21-220); assay: ECL multispot (MSD), antigen spotted, 10 nM Fab; blank spot of this row 271
T3 construct: Bought recombinant protein; Fc part of the bought chimera not given

[4] = target: T4, rHuman EGF R/Fc Chimera, CF (R&D Systems Cat#344-ER) (human, UniProt P00533 25-645); assay: as above
T4 construct: Bought recombinant protein; also called epidermal growth factor receptor; Fc part of the bought chimera not given

[5] = target: T5, rHuman ErbB2/Fc Chimera, CF (R&D Systems Cat#1129-ER) (human, UniProt P04626 23-652); assay: as above
T5 construct: Bought recombinant protein; also called human epidermal growth factor 2 receptor; Fc part of the bought chimera not given

[6] = target: T6, rHuman Notch-1/Fc Chimera, CF (R&D Systems Cat#3647-TK) (human, UniProt P46531 19-526); assay: as above
T6 construct: Bought recombinant protein; Fc part of the bought chimera not given

[7] = target: T7, rHuman P-Cadherin/Fc Chimera, CF (R&D Systems Cat#861-PC) (human, UniProt P22223 108-654); assay: as above
T7 construct: Bought recombinant protein; Fc part of the bought chimera not given

[8] = target: T8, rHuman IGF-1 sR, (IGF-1 sR), CF (R&D Systems Cat#391-GR) (human, UniProt P08069 31-932); assay: as above
T8 construct: Bought recombinant soluble receptor; also called insulin-like growth factor-1 soluble receptor

[9] = target: T9, rHuman Erythropoietin R/Fc Chimera, CF (R&D Systems Cat#963-ER) (human, UniProt P19235 25-250); assay: as above
T9 construct: Bought recombinant protein; also called EPO R; EPO R/Fc; Fc part of the bought chimera not given
T9 sequence (looked up): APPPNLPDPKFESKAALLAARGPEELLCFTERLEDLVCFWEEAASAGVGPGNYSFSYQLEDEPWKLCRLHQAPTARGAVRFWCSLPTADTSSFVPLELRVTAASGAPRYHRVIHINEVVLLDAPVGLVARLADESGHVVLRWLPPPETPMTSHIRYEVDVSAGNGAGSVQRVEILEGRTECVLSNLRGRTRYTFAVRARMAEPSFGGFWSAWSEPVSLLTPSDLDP

[10] = target: T10, Recombinant Human DLL4 (R&D Systems Cat#1506-D4/CF) (human, UniProt Q9NR61 27-524); assay: ECL multispot (MSD) binding assay; DLL4 signal over blank spot
T10 construct: Bought recombinant protein; also called delta-like protein 4; rHuman DLL4

[11] = target: T10, Recombinant Human DLL4 (R&D Systems …); assay: ECL multispot (MSD) binding assay; DLL4 spotted on the plate, purified Fab added
rHuman ErbB2/Fc Chimera = rHuman ErbB2/Fc Chimera (human, UniProt P04626 23-652); assay: ECL multispot (MSD) binding assay; antigen spotted on plate, Fab in solution;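 note: purified Fab bound for 1 h at 20 °C, detected with a TAG-labelled antibody, electrochemiluminescence compared with each well's blank, signal-to-blank ratio of at least 4 scored as hit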
[12] = target: T11, Recombinant Human DLL4 (delta-like protein 4) (human, UniProt Q9NR61 27-529); assay: as above
T11 construct: Bought from R&D Systems (Cat#1506-D4/CF); also called rHuman DLL4

[13] = target: T12, rHuman HGF R/c-MET/Fc Chimera (human, UniProt P08581 25-932); assay: as above
T12 construct: also called HGF R/Fc
T12 sequence (P08581 25-932, change not shown): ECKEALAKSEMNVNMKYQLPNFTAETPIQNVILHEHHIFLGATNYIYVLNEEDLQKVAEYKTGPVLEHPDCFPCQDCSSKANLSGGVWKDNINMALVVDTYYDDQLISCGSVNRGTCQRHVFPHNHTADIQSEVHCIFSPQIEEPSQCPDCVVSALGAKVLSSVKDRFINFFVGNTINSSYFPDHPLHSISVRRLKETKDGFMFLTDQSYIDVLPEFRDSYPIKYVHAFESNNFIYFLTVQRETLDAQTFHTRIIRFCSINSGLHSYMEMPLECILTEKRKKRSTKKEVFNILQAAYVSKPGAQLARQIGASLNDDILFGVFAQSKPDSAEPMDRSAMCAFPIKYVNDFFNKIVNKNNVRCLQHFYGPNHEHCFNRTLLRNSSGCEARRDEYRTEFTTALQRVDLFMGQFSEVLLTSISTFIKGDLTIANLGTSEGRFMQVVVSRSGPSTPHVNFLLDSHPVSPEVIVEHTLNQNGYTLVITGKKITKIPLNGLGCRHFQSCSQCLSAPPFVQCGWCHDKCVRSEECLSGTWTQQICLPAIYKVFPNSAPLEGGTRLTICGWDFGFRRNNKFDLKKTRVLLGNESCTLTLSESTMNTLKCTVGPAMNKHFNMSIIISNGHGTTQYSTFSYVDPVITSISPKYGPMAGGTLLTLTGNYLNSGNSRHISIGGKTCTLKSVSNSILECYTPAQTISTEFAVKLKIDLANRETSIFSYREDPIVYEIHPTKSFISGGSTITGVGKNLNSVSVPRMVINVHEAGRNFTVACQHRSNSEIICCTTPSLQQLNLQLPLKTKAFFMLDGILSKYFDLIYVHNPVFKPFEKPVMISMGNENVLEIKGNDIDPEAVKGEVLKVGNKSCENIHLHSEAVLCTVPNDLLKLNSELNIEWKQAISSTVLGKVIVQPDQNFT

[14] = target: rHuman IGF-1 sR (insulin-like growth factor-1 soluble receptor) (human, UniProt P08069 31-932); assay: as above
rHuman EGF R/Fc Chimera = rHuman EGF R/Fc Chimera (human, UniProt P00533 25-645); assay: as above
[15] = target: T13, rHuman P-Cadherin/Fc Chimera (human, UniProt P22223 108-654); assay: as above
T13 construct: Bought from R&D Systems (Cat#861-PC)

[16] = target: T14, rHuman ErbB2/Fc Chimera, CF (R&D Systems Cat#1129-ER) (human, UniProt P04626 23-652); assay: Multispot ECL (MSD) binding screen, antigen spotted on plate; hit = signal/blank >= 4
T14 construct: Bought Fc chimera; also called human epidermal growth factor 2 receptor; Fc part of the bought chimera not given

B1: Fab VH1-46_IGHD6-6*01_IGHJ1*01 S102A/S103P/S104F G55W & L6_IGKJ1*01 (Fab, V domains shown)
VH: QVQLVQSGAEVKKPGASVKVSCKASGYTFTSYYMHWVRQAPGQGLEWMGIINPSWGSTSYAQKFQGRVTMTRDTSTSTVYMELSSLRSEDTAVYYCAREEYAPFSAEYFQHWGQGTLVTVSS
VL: not shown
notes: Tested as Fab; also called APF G55W
A Signal/Noise [1] of 8 was found for B1 in this work.

B2: Fab VH1-46_IGHD6-6*01_IGHJ1*01 S102A/S103P/S104F/H111F & L6_IGKJ1*01 (Fab, V domains shown)
VH: B1 VH with W55G, H111F
VL: not shown
notes: Fab format is as for m1 (CH1 with His6/Flag from Plasmid A, kappa CL from Plasmid C); also called APFF; H:APFF & L:wt
A Signal/Noise [2] of 42.5 was found for B2 in this work.

B3: Fab VH1-46_IGHD6-6*01_IGHJ1*01 S102A/S103P/S104F G55W & L6_IGKJ1*01 (Fab, V domains shown)
VH: B1 VH
VL: not shown
notes: Tested as Fab (CH1 with His6 and Flag tags, kappa CL); also called APF G55W
An ECL signal [3] of 159, an ECL signal [4] of 312 and an ECL signal [5] of 334 were found for B3 in this work. It also gave an ECL signal [6] of 327, an ECL signal [7] of 391 and an ECL signal [8] of 250. The ECL signal [9] was 296.

B4: Fab VH1-46_IGHD6-6*01_IGHJ1*01 S102A/S103P/S104F/H111F (APFF) & L6_IGKJ1*01 S92G (Fab, V domains shown)
VH: B1 VH with W55G, H111F
VL: EIVLTQSPATLSLSPGERATLSCRASQSVSSYLAWYQQKPGQAPRLLIYDASNRATGIPARFSGSGSGTDFTLTISSLEPEDFAVYYCQQRGNWPPWTFGQGTKVEIKR
notes: Fab with CH1 (His6 and Flag tags) and kappa CL from the expression vectors; also called APFF & S92G
With B4 the Signal/Blank [10] was 281 ratio and the “ECL signal” value [11] was 91400 ECL counts.

B5: Fab VH1-46_IGHD6-6*01_IGHJ1*01 S102A/S103P/S104F/H111F (APFF) & L6_IGKJ1*01 (Fab, V domains shown)
VH: B1 VH with W55G, H111F
VL: not shown
notes: Tested as Fab (CH1 with His6/Flag tags from Plasmid A; kappa CL from Plasmid C); also called APFF / parent; H:APFF & L:wt
An ECL signal (rHuman ErbB2/Fc Chimera) of 289, an ECL signal [12] of 189000 and an ECL signal [13] of 185 were found for B5 in this work. It also gave an ECL signal [14] of 336, an ECL signal (rHuman EGF R/Fc Chimera) of 326 and an ECL signal [15] of 295.

B6: Fab VH1-69_IGHD1-1*01_IGHJ6*01 & A17_IGKJ1*01 (Fab, V domains shown)
VH: QVQLVQSGAEVKKPGSSVKVSCKASGGTFSSYAISWVRQAPGQGLEWMGGIIPIFGTANYAQKFQGRVTITADKSTSTAYMELSSLRSEDTAVYYCARGYNWNDDYYYYYGMDVWGQGTTVTVSS
VL: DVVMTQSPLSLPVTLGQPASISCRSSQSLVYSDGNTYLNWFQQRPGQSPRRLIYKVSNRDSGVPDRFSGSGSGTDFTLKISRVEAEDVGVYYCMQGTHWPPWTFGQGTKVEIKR
notes: Fab; expressed in E. coli from Plasmid A (CH1, His6 and Flag tags) and Plasmid C (kappa CL)
B6: binds [16].
